# Laboratory results reported in IntAct's records for PubMed 9430655.
# B1: Merlin (Homo sapiens), P35240-1 (parent)
# chain: MAGAIASRMSFSSLKRKQPKTFTVRIVTMDAEMEFNCEMKWKGKDLFDLVCRTLGLRETWFFGLQYTIKDTVAWLKMDKKVLDHDVSKEEPVTFHFLAKFYPENAEEELVQEITQHLFFLQVKKQILDEKIYCPPEASVLLASYAVQAKYGDYDPSVHKRGFLAQEELLPKRVINLYQMTPEMWEERITAWYAEHRGRARDEAEMEYLKIAQDLEMYGVNYFAIRNKKGTELLLGVDALGLHIYDPENRLTPKISFPWNEIRNISYSDKEFTIKPLDKKIDVFKFNSSKLRVNKLILQLCIGNHDLFMRRRKADSLEVQQMKAQAREEKARKQMERQRLAREKQMREEAERTRDELERRLLQMKEEATMANEALMRSEETADLLAEKAQITEEEAKLLAQKAAEAEQEMQRIKATAIRTEEEKRLMEQKVLEAEVLALKMAEESERRAKEADQLKQDLQEAREAERRAKQKLLEIATKPTYPPMNPIPAPLPPDIPSFNLIGDSLSFDFKDTDMKRLSMEIEKEKVEYMEKSKHLQEQLNELKTEIEALKLKERETALDILHNENSDRGGSSKHNTIKKLTLQSAKSRVAFFEEL
# partner: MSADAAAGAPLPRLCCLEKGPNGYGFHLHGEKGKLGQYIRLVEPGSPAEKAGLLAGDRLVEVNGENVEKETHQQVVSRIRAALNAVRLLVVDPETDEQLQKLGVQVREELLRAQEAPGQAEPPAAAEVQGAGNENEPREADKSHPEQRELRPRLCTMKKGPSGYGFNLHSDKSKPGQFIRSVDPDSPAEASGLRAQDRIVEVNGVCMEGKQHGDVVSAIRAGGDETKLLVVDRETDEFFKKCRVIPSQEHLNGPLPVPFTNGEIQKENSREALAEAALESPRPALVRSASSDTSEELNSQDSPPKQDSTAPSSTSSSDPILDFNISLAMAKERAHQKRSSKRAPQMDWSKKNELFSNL
# Variants of: B1
# Settings: with nhrf1_human NHERF1, O14745
row,Variant,effect of a mutation on the interaction
1,MAGAIASRMSFSSLKRKQPKTFTVRIVTMDAEMEFNCEMKWKGKDLFDLVCRTLGLRETWFFGLQYTIKDTVAWLKMDKKVLDHDVSKEEPVTFHFLAKFYPENAEEELVQEITQHLFFLQVKKQILDEKIYCPPEASVLLASYAVQAKYGDYDPSVHKRGFLAQEELLPKRVINLYQMTPEMWEERITAWYAEHRGRARDEAEMEYLKIAQDLEMYGVYYFAIRNKKGTELLLGVDALGLHIYDPENRLTPKISFPWNEIRNISYSDKEFTIKPLDKKIDVFKFNSSKLRVNKLILQLCIGNHDLFMRRRKADSLEVQQMKAQAREEKARKQMERQRLAREKQMREEAERTRDELERRLLQMKEEATMANEALMRSEETADLLAEKAQITEEEAKLLAQKAAEAEQEMQRIKATAIRTEEEKRLMEQKVLEAEVLALKMAEESERRAKEADQLKQDLQEAREAERRAKQKLLEIATKPTYPPMNPIPAPLPPDIPSFNLIGDSLSFDFKDTDMKRLSMEIEKEKVEYMEKSKHLQEQLNELKTEIEALKLKERETALDILHNENSDRGGSSKHNTIKKLTLQSAKSRVAFFEEL [N220Y],decreasing interaction
